The text below walks through data of article PMC12631009, “Dominant‐Negative Effects of p53 R337 Variants in Li–Fraumeni Syndrome: Impact on Tetramer Formation and Transcriptional Activity” (Chembiochem, 2025).

The assay concerns the target T1, Biotin-(Aca)2-p53TD (biotin-labeled WT p53 tetramerization domain peptide, residues 319-358) (human, biotin conjugated at the N-terminus with two residues of aminocaproic acid (Aca) as a linker).
T1 construct: p53 tetramerization domain, human, residues 319-358; Held on NeutrAvidin beads in the pull-down; also called Bio-(Aca)2-p53TD; biotin-labeled WT p53TD; source: synthetic peptide (solid-phase synthesis, reverse-phase HPLC purified); not shown: biotin, N-terminal, kept
T1 peptide: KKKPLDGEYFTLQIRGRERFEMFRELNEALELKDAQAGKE
As to the kind of experiment: pull-down; avidin-biotin pull-down: Bio-(Aca)2-p53TD mixed with nonbiotinylated peptide at equimolar concentrations (10 μM) in 50 mM Na phosphate buffer (pH 7.5), 100 mM NaCl; boiled 5 min, cooled to promote hetero-oligomerization; bound to NeutrAvidin beads at 4 °C for 2 h; eluted with 80% acetic acid; peptides quantified by reverse-phase HPLC; result as ratio of peptide pulled down to biotinylated p53TD. To be noted: both partners purified.

B1: WT p53TD peptide (residues 319-358 of human p53), nonbiotinylated (peptide)
peptide: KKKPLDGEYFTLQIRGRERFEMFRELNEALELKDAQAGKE
notes: p53 tetramerization domain, human, residues 319-358; source: synthetic peptide (solid-phase synthesis, reverse-phase HPLC purified)
Take B1: the “ratio of peptide pulled down to biotinylated p53TD” value was found to be 0.81.
